Data on three substances can be found in patent US20240132578A1.

The term IC50 denotes the concentration needed to halve the response being measured. Lower therefore signals greater potency.

Holding throughout (experiment): cell-based or functional assay
The target of assay [1] is HIV-1 APV-13 envelope (Env) on pseudovirus (HIV-1).
In assay [2] the target is HIV-1 Env of isolate 92RW020 (Clade A) (HIV-1).
The target of assay [3] is HIV-1 Env of isolate APV_6, clade B (HIV-1).
Assay [4] concerns the target HIV-1 Env of isolate MGRM-A-009 (clade A pseudovirus) (HIV-1).
The target in assay [5] is HIV-1 Env of isolate MGRM-D-004 (clade D pseudovirus) (HIV-1).
The target of assay [6] is HIV-1 Env of isolate MGRM-D-005 (clade D pseudovirus) (HIV-1).
Assay [7] deals with HIV-1 Env of isolate MGRM-D-028 (clade D pseudovirus) (HIV-1).
Assay [8] deals with HIV-1 Env of isolate QH0692.42 (Acute), clade B (HIV-1).
Assay [9] concerns the target HIV-1 Env of pseudovirus MGRM-F1-012 (clade F) (HIV-1).
Assay [10] has as its target HIV-1 Env of pseudovirus MGRM-F1-016 (clade F) (HIV-1).
In assay [11] the target is HIV-1 MGRM-AE-006 Env (pseudovirus) (HIV-1).
The target in assay [12] is HIV-1 MGRM-AG-009 Env (pseudovirus) (HIV-1).
Assay [13] deals with HIV-1 envelope glycoprotein (Env) of isolate MGRM-C-007 (HIV-1).
Assay [14] concerns the target HIV-1 envelope glycoprotein (Env) of isolate MGRM-C-010 (HIV-1).
In assay [15] the target is HIV-1 envelope glycoprotein (Env) of isolate MGRM-C-022 (HIV-1).
Assay [16] addresses envelope of aMLV pseudovirus (negative control).

A value given as a limit tells only on which side of the number the result lay.

Sequence of 1443_C16 (PG16) (TCN-116) (antibody) (VH): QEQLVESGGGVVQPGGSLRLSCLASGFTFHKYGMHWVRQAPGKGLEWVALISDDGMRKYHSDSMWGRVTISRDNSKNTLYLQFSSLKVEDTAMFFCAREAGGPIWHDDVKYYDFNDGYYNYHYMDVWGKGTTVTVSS
Sequence of 1443_C16 (PG16) (TCN-116) (antibody) (VL): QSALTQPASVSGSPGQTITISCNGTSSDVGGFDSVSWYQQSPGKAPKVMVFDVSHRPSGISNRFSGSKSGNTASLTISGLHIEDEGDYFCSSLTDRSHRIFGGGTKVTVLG

As to 1443_C16 (PG16) (TCN-116) (antibody), in [1], the neutralization IC50 was over 50 µg/mL. This substance also displayed an IC90 (neutralization of pseudovirus) in assay [2] of over 50 µg/mL. In addition, the IC50 (µg/ml), pseudovirus neutralization in [3] was 0.29 µg/mL; in [4], 0.01 µg/mL; in [8], over 50 µg/mL; in assay [11], 0.03 µg/mL; in [12], over 50 µg/mL; in assay [13], 0.05 µg/mL. Moreover, the IC50 (µg/ml), pseudovirus neutralization in assay [14] is over 50 µg/mL; in [15], 0.25 µg/mL. Besides, the IC50, pseudovirus neutralization in [5] is 0.01 µg/mL; in [6], 19.7 µg/mL; in assay [7], over 50 µg/mL. Further, the IC50 in [9] is 0.003 µg/mL; in [10], 1.12 µg/mL; in assay [16], over 50 µg/mL.

As to 2G12 (antibody), in [1], the neutralization IC50 is 23.9 µg/mL. In addition, in assay [2], the IC90 (neutralization of pseudovirus) is 6.23 µg/mL. The IC50 (µg/ml), pseudovirus neutralization in assay [3] is 1.9 µg/mL; in [4] it was 7.47 µg/mL; in [8], 4.39 µg/mL; in assay [11], over 50 µg/mL; in assay [12] it was over 50 µg/mL; in assay [13], over 50 µg/mL. Moreover, the IC50 (µg/ml), pseudovirus neutralization in assay [14] and in assay [15] was over 50 µg/mL throughout. Also, the IC50, pseudovirus neutralization is over 50 µg/mL in assay [5], 25.7 µg/mL in assay [6] and over 50 µg/mL in assay [7]. The values for the IC50 in assay [9], in assay [10] and in [16] were 1.81 µg/mL, over 50 µg/mL and over 50 µg/mL, respectively.

Turning to 2F5 (antibody), in assay [1], the neutralization IC50 worked out at 2.8 µg/mL. The IC90 (neutralization of pseudovirus) in [2] was determined as 27.7 µg/mL. Moreover, the IC50 (µg/ml), pseudovirus neutralization in assay [3] was 0.25 µg/mL; in assay [4] it was 9.4 µg/mL; in assay [8], 5.42 µg/mL; in [11] it was 0.18 µg/mL; in assay [12], 24.8 µg/mL; in assay [13], over 50 µg/mL. Besides, the IC50 (µg/ml), pseudovirus neutralization in assay [14] and in assay [15] was over 50 µg/mL throughout. Moreover, the values for the IC50, pseudovirus neutralization in assay [5], in [6] and in [7] were 2.3 µg/mL, over 50 µg/mL and over 50 µg/mL, respectively. Moreover, the figures for the IC50 in assay [9], in [10] and in assay [16] were over 50 µg/mL, 21.5 µg/mL and over 50 µg/mL, respectively.
